According to article PMC10140330:
pKd: −log10 of the molar value.

Target: SmT1-R, resistin-trimerized SARS-CoV-2 reference strain spike ectodomain (SARS-CoV-2 | human) (UniProt P0DTC2)
Experiment: SPR; Biacore T200, 25°C, PBS with 0.05% Tween 20 and 3.4 mM EDTA; spike trimer captured through its resistin domain on an immobilised anti-resistin VHH-Fc; monomeric ACE2 flowed over, single cycle kinetics, three concentrations, 5-fold dilutions from 200 nM; 1:1 binding model

Substance: recombinant human ACE2, purified monomeric (from UniProt Q9BYF1 18-805) (receptor)
- pKd: 7.55
